Data as given in patent US12661396B2, “Selective targeting of the TREML1/MD2 interaction by small peptide or protein and its use for vaccine adjuvants” (Ascendo Biotechnology, Inc., priority 2020, dated 2026).

Experiments:
[1] = tested on: THP1/XBlue/MD2/CD14 cells; assay: TREML1 ECD binding to THP1/XBlue/MD2/CD14 cells and antibody competition (flow cytometry); format: cell-based; conditions: TREML1 ECD 10 ug/ml, 1 hour; AF647-anti-human TREML1 staining; FIG. 4
Text: (§1) In addition to the solid phase binding assays, the TREML1 ECD binding was further evaluated using THP1/XBlue/MD2/CD14 cells (InvivoGen, San Diego, USA), which express MD2 and CD14. These cells (InvivoGen, San Diego, USA) are derived from the human monocytic THP1 cell line and express an NF-κB- and AP-1-inducible secreted embryonic alkaline phosphatase (SEAP) reporter gene.
To investigate the effects of anti-TLR4 antibody (HTA125, BioLegend #312814) and anti-MD2 antibody (18H10, ThermoFisher #MA5-33351) on TREML1 ECD binding to THP1/XBlue/MD2/CD14 cells, cells were pretreated with anti-MD2 antibody, anti-TLR4 antibody, IgG control, or a combination for 15 min at 37° C. with 5% CO2. After antibodies treatments, cells were treated with TREML1 ECD (10 ug/ml) and incubated for 1 hours. Cells were washed with PBS containing 1% FBS and stained with AF647-anti-human TREML1 antibody, followed by flow cytometric analysis.
The cells were resuspended in PBS containing 1% FBS at a density of 2×10^6 cells/ml and non-specific bindings of Abs were blocked using Human Fc Block (BD Biosciences #564220) at room temperature for 10 min. AF647-anti-human TREML1 (clone 268420) (R&D #FAB2394R) antibody was used as a detection antibody of TREML1 binding to cell surface. […] Binding analysis was performed on a CytoFLEX Flow Cytometer (Beckman Coulter) and the collected data were analyzed using Kazula software.

CD14 = molecular target: T1, CD14 (Homo sapiens, UniProt P08571); assay: Solid phase binding assay, TREML1 ECD to immobilized CD14; conditions: absorbance at 450 nm; FIG. 2
T1 sequence (P08571 20-345): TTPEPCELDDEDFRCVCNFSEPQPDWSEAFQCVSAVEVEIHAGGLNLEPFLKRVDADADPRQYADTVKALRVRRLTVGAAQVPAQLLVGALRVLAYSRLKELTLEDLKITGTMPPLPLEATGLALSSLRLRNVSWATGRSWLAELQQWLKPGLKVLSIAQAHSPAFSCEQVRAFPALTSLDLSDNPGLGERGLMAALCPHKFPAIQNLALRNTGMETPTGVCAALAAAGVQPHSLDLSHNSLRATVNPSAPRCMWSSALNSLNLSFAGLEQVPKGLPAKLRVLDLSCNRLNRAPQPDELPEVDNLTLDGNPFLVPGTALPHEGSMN
Experimental: (§2) To identify potential binding partners of TREML1 ECD, we used solid phase binding assay to assess interactions between TREML1 ECD and candidate proteins. Briefly, various candidate proteins and BSA (as a negative control) were coated on a 96-well plate and TREML1 ECD at various concentrations were added to the wells. After binding and washing, an anti-TREML1 antibody conjugated with horse radish peroxidase (HRP) was added to each well. After washing, HRP substrate, TMB (3,3′,5,5′-tetramethylbenzidine), was added. After reaction, absorbance at 450 nm was measured to assess TREML1 binding.
(§3) To investigate the protein-protein interactions. Recombinant TLR4 (5 ug/ml in PBS), MD2 (5 ug/ml in PBS), CD14 (5 ug/ml in PBS), and BSA (negative control) proteins were plated separately on 96-well plates and incubated overnight at 4 degrees Celsius. The blocking buffer (2% BSA in PBS) was added to avoid the nonspecific binding for 2 hr at room temperature. A serial diluted TREML1 ECD (2.5 ug/ml to 156 ng/ml, 2-fold dilutions) solutions were added and allowed to incubate at room temperature for 2 hr. Then, anti-TREML1 antibody (1 ug/ml in PBS) was added for 1 hr. Next, a secondary antibody with HRP labeling, anti-Rat IgG-HRP, was added to the plates and incubated for 30 minutes at room temperature. […] Absorbance at OD450/540 nm was measured with a microplate reader.

TLR4 = TLR4 (Homo sapiens, UniProt O00206); assay: Solid phase binding assay, TREML1 ECD to immobilized TLR4; conditions: absorbance at 450 nm; TREML1 ECD 2.5 ug/ml to 156 ng/ml; FIG. 2
Chain of TLR4 (O00206 24-839): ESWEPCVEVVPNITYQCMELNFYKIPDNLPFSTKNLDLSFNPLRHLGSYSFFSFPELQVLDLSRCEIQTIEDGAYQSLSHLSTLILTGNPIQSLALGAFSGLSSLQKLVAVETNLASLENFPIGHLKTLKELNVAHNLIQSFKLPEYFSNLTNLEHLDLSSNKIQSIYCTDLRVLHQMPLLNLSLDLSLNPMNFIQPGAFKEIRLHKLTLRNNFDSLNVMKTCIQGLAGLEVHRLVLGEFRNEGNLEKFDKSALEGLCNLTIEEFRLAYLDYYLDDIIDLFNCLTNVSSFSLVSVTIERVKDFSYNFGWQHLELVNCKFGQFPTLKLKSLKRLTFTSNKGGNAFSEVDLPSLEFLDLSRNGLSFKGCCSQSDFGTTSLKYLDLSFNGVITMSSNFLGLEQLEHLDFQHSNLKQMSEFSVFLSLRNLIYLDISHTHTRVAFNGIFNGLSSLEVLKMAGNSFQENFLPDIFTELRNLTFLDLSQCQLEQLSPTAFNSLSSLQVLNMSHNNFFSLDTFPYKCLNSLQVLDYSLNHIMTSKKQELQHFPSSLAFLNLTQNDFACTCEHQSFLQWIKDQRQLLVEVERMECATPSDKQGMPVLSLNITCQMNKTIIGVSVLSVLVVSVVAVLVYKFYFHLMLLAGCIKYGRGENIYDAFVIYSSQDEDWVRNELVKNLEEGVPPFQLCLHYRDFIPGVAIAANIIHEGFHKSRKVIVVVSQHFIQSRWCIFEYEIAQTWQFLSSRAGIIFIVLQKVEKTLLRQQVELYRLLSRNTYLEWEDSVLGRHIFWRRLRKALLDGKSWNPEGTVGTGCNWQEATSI
Experimental: as §2, §3

[2] = tested on: Human peripheral blood mononuclear cells (PBMCs); assay: TLR agonist-induced TNF-α secretion in human PBMCs with or without TREML1 ECD; format: cell-based; conditions: human PBMCs pretreated with hTREML1 10, 5, 1 ug/ml for 30 min
Experimental: Human peripheral blood samples from healthy volunteer donors were collected by venipuncture bled into ACD vacutainer tubes. Human peripheral blood mononuclear cells (PBMCs), which were separated from whole blood using Ficoll-Paque Plus (GE17-1440-03) according to the manufacturer's instructions. Human peripheral blood mononuclear cells (PBMCs) were pretreated with or without […]1 (10 ug/ml, 5 ug/ml and 1 ug/ml) and incubated for 30 min at 37° C. with 5% CO2. After treatments, cells were stimulated with TLR agonist, including R848 (InvivoGen #tlrl-r848) and ODN2395 (InvivoGen #tlrl-2395), and incubated at 37° C. with 5% CO2 for 18 hr. Supernatants of cell culture medium were collected for TNF-α measurements. Cell supernatants and plasma samples were harvested and stored at -80° C. Human TNFα concentrations were detected using TNF-α DuoSet ELISA kit (R&D #DY210) according to manufacturer's instructions. Signals were developed using 3,3',5,5'-tetramethylbenzidine and the absorbance of 450 nm was detected with a microplate reader.

NF-κB = NF-κB activation in THP1/XBlue/MD2/CD14 cells (SEAP reporter, QUANTI-Blue); format: cell-based, human; conditions: FIG. 5A
Text: as §1
(§4) To investigate the effects of anti-TLR4 antibody and anti-MD2 antibody on TREML1 ECD-triggered TLR response, THP1/XBlue/MD2/CD14 cells were pretreated with anti-TLR4 antibody, anti-MD2 antibody, or IgG control for the indicated groups and incubated for 15 minutes at 37° C., 5% CO2. After pretreatments, THP1/XBlue/MD2/CD14 cells were stimulated by TREML1 ECD (10 ug/ml) and seeded at a concentration of 1×10^6 cells/ml (200 ul per well) into wells of a 96-well plate for 18 hr at 37° C., 5% CO2. To determine the NF-κB activation, the supernatants of culture medium were collected and assessed with QUANTI-Blue™ reagent (InvivoGen) according to the manufacturer's instructions.

MD2 = molecular target: T2, MD2 (Homo sapiens, UniProt Q9Y6Y9); assay: Solid phase binding assay, TREML1 ECD to immobilized MD2; conditions: absorbance at 450 nm; TREML1 ECD 2.5 ug/ml to 156 ng/ml; FIG. 2
T2 sequence (Q9Y6Y9 19-160): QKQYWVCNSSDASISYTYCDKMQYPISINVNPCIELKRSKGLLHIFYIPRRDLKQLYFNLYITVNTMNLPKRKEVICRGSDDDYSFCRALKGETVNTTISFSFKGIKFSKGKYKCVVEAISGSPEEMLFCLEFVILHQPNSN
Experimental: as §2, §3

[3] = tested on: THP1/XBlue/MD2/CD14 cells; assay: TNF-α secretion by THP1/XBlue/MD2/CD14 monocytes (ELISA); format: cell-based, human; conditions: FIG. 5B
Experimental: as §4
Cell supernatants and plasma samples were harvested and stored at −80° C. Human TNFα concentrations were detected using TNF-α DuoSet ELISA kit (R&D #DY210) according to manufacturer's instructions. Signals were developed using 3,3′,5,5′-tetramethylbenzidine and the absorbance of 450 nm was detected with a microplate reader.

B1: TREML1 ECD: human TREML1 extracellular domain, SEQ ID NO:1; recombinant, E. coli, polyhistidine tag at the N-terminus (protein)
chain: QGIVGSLPEVLQAPVGSSILVQCHYRLQDVKAQKVWCRFLPEGCQPLVSSAVDRRAPAGRRTFLTDLGGGLLQVEMVTLQEEDAGEYGCMVDGARGPQILHRVSLNILPPEEEEETHKIGSLAENAFSDPAGSANPLEPSQDEKSIP
modifications: N-terminal polyhistidine tag; homo sapiens
notes: recombinant, E. coli, polyhistidine tag at the N-terminus
**Q.** How did the “binding to THP1/XBlue/MD2/CD14 cells” value [1] turn out when B1 was run?
**A.** Its value is “can bind to the THP1/XBlue/MD2/CD14 cells”.

**Q.** What about the “TREML1 ECD binding to immobilized CD14” value (CD14) of the same molecule?
**A.** Its value is “does not bind to CD14”.

**Q.** And the “TREML1 ECD binding to immobilized TLR4” value (TLR4)?
**A.** The value was “binds MD2 and TLR4 in a concentration-dependent manner”.

**Q.** And the “effect on R848 (TLR7/8)-induced TNF-α secretion” value ([2]; FIG. 7A)?
**A.** The value was “enhanced in the presence of TREML1 ECD”.

**Q.** And the “effect on ODN 2395 (TLR9)-induced TNF-α secretion” value ([2]; FIG. 7B)?
**A.** Its value is “enhanced in the presence of TREML1 ECD in a dose-dependent manner”.

**Q.** And the “NF-κB activation in THP1/XBlue/MD2/CD14 monocytes” value (NF-κB)?
**A.** Its value is “induced activation of NF-κB”.

**Q.** What about the “TREML1 ECD binding to immobilized MD2” value (MD2) of the same molecule?
**A.** Its value is “binds MD2 and TLR4 in a concentration-dependent manner”.

**Q.** What about the “TNF-α secretion by THP1/XBlue/MD2/CD14 monocytes” value [3] of the same molecule?
**A.** Its value is “induces THP1/XBlue/MD2/CD14 monocyte activation”.
